# Assays:
# [1] = target: fluorescein-labeled synthetic eIF1A-CT7 peptide (human); assay: fluorescence polarisation
# [2] = target: eIF5B Domain-4 (eIF5B-D4) (human); assay: fluorescence polarisation
# [3] = target: eIF5B-D34 (eIF5B domains D3 and D4) (human); assay: fluorescence polarisation
# [4] = target: eIF1AΔC (eIF1A missing the entire 26-residue C-terminal tail) (human); assay: NMR titration
# Sequence of eIF5B-D34 (eIF5B domains D3 and D4) (human) (O60841 whole entry, the tested form may be a part): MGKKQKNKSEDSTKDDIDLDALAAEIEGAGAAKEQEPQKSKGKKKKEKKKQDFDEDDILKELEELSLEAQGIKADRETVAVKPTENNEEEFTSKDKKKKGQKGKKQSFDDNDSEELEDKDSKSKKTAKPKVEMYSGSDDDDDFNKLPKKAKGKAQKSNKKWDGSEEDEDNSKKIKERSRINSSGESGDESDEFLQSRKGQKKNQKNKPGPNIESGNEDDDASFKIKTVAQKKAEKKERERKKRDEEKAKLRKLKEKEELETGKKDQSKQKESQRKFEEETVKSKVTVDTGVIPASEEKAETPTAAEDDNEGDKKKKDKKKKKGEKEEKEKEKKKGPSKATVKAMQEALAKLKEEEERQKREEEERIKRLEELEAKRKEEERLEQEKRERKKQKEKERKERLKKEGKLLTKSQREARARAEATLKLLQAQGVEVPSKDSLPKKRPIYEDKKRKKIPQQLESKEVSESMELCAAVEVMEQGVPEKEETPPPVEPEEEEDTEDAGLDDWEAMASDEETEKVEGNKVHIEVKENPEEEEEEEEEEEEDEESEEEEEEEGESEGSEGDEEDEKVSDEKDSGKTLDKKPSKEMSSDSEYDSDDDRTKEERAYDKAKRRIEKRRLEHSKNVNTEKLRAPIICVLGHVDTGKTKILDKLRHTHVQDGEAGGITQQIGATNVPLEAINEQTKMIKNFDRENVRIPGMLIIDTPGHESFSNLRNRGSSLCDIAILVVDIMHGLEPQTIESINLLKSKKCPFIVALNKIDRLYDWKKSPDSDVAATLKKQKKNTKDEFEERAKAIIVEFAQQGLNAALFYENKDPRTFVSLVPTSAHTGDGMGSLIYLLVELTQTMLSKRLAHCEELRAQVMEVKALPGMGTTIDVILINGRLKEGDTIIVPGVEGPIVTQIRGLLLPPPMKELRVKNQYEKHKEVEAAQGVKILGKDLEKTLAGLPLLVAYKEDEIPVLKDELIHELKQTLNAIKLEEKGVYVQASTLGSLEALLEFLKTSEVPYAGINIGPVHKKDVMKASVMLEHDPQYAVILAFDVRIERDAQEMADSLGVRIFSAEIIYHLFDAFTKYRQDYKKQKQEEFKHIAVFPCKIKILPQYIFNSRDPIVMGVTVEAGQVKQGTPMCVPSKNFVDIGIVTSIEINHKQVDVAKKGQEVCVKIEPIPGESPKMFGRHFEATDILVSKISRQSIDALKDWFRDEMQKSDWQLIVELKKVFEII
# Sequence of eIF5B Domain-4 (eIF5B-D4) (human) (O60841 whole entry, the tested form may be a part): as above
Kd [1],Kd [2],Kd [3],Kd [4],Substance
12 µM,–,–,–,eIF5B Domain-4 (eIF5B-D4) (domain or fragment)
–,39 µM,41 µM,–,"eukaryotic translation initiation factor 1A (eIF1A), full-length (from UniProt P47813 1-144) (natural protein)"
–,12 µM,18 µM,–,"eIF1A C-terminal tail (eIF1A-CTT), 26 residues (peptide)"
27 µM,–,–,–,eIF5B-D34 (eIF5B domains D3 and D4) (domain or fragment)
–,12 µM,23 µM,–,eIF1A-CT16 (the 16 C-terminal residues in eIF1A) (peptide)
–,–,–,< 1000 µM,eIF5B Domain-3 (eIF5B-D3) (domain or fragment)
